Test results taken from FireProtDB (doi:10.1021/bi982158q).

B1: Cytochrome b5, P00171 (parent)
chain: MAEESSKAVKYYTLEEIQKHNNSKSTWLILHYKVYDLTKFLEEHPGGEEVLREQAGGDATENFEDVGHSTDARELSKTFIIGELHPDDRSKITKPSESIITTIDSNPSWWTNWLIPAISALFVALIYHLYTSEN

Variants of: B1
Settings: Bos taurus, pH 7, K2HPO4 5 mM, transition: 2, reversible: Yes, structure 1CYO, whole UniProt chain shown; for denaturant m value / denaturant midpoint (higher = more stable) / unfolding free energy: 25 °C, Urea; for Tm / change of melting temperature, mutant - wild type (higher = more stable): Thermal

| Variant | denaturant m value (Absorbance) | denaturant midpoint (higher = more stable) (Absorbance) | unfolding free energy (Absorbance) | denaturant m value (Fluorescence) | denaturant midpoint (higher = more stable) (Fluorescence) | unfolding free energy (Fluorescence) | Tm (Absorbance) | change of melting temperature, mutant - wild type (higher = more stable) (Absorbance) | Tm (Fluorescence) | change of melting temperature, mutant - wild type (higher = more stable) (Fluorescence) |
| --- | --- | --- | --- | --- | --- | --- | --- | --- | --- | --- |
| S23C R52C | 0.81 kcal/mol/M | 6.4 M | 5.2 kcal/mol | 0.93 kcal/mol/M | 3.7 M | 3.4 kcal/mol | 76 °C | 0.8 °C | 60.8 °C | 10.7 °C |
| S23C | 0.97 kcal/mol/M | 6.5 M | 6.9 kcal/mol | 0.56 kcal/mol/M | 2.5 M | 1.4 kcal/mol | 75.5 °C | 0.3 °C | 52.7 °C | 2.6 °C |
